Experimental data reported in the RNAGym collection of RNA variant scans (doi:10.7554/elife.80360).

B1: HDV Ribozyme (parent)
chain: GGCCGGCAUGGUCCCAGCCUCCUCGCUGGCGCCGGCUGGGCAACAUUCCGAGGGGACCGUCCCCUCGGUAAUGGCGAAUGGGACCCA

Variants of: B1
Assay: self-cleavage, relative activity (ratio to wild type); higher = more cleavage; co-transcriptional

| Variant | self-cleavage |
| --- | --- |
| GGCCGGCAUGGUCCCAGCCUCCUCGCUGGCGACGGCUGGGCAACAUUCCGAGGGGACCGUCCCCUCGGUAAUAGCGAAUGGGACCCA [C32A G73A] | 0.138 |
| GGCCGGCAUGGUCCCAGUCUCCUCGCUGGCGCCGGCUGGGCAACAUACCGAGGGGACCGUCCCCUCGGUAAUGGCGAAUGGGACCCA [C18U U47A] | 0.293 |
| GGCCGGCGUGGUCCCAGCCUCCUCGCUGGCGCCCGCUGGGCAACAUUCCGAGGGGACCGUCCCCUCGGUAAUGGCGAAUGGGACCCA [A8G G34C] | 0.0573 |
| GUCCGGCAUGGUCCCAGGCUCCUCGCUGGCGCCGGCUGGGCAACAUUCCGAGGGGACCGUCCCCUCGGUAAUGGCGAAUGGGACCCA [G2U C18G] | 0.0692 |
| GGCCGGCAUGGUCCCAGCCUCCCCGCUGGCGCCGGCUGGGCAACAUUCCGAGGGGACCGUCCCCUUGGUAAUGGCGAAUGGGACCCA [U23C C66U] | 0.95 |
| GGCCGGCAUGGUCCCAGCCUCCUCGCUGCCGCCGGCUGAGCAACAUUCCGAGGGGACCGUCCCCUCGGUAAUGGCGAAUGGGACCCA [G29C G39A] | 0.0583 |
| GGCCGGCAUGGUCCCAGCCUCCUCGCUGGCGCCGGCUGGGCAACCUUCCGAGGGGACCAUCCCCUCGGUAAUGGCGAAUGGGACCCA [A45C G59A] | 0.704 |
| GGCCGGCAUGGUCCCAGCCUCCUCGCUGGCGCCGACUGGGCAACAUUCCGAGGGGACCGUCCCCUCGGUGAUGGCGAAUGGGACCCA [G35A A70G] | 0.491 |
| GGACGGCAUGGUCCCAGCCGCCUCGCUGGCGCCGGCUGGGCAACAUUCCGAGGGGACCGUCCCCUCGGUAAUGGCGAAUGGGACCCA [C3A U20G] | 0.0163 |
| GGCCGGCAUGGUCCCAGCCUCCUCGCUGGCGCCGGCUGGGCAACAUUCCGAGGGGACAGUCCCCUCGGUAAUGGCGCAUGGGACCCA [C58A A77C] | 0.482 |
| GGCCGGCAUGGUCCCAGCCUCCUCGCUGGCGCCGGCUGGGCAACAUUCCGAGGGGACCGUCCCCUCGGUAAUGGCGAAUGACACCCA [G81A G82C] | 0.163 |
| GGCCGGCAUGGUCCCAGCCUCCUCGCUGGCGCCGGCUGGGCAAGAUUCCGAGGGGACCGUCCCCUCGGUAAUGUCGAAUGGGACCCA [C44G G74U] | 0.318 |
| GGCCGGCAUGGUCCCAGCCUCCUCGCUGGCGCCGGCAGGGCAACAUUCCGAGGGGACCGUCCCCUCGGUAAUGGUGAAUGGGACCCA [U37A C75U] | 0.128 |
| GGCCGGGAUGGUCCCAGCCUCCUCGCUGGCGCCGGCUGGGCAACCUUCCGAGGGGACCGUCCCCUCGGUAAUGGCGAAUGGGACCCA [C7G A45C] | 0 |
| GGCCGGCAUGGUCCCAGCCUCCUAGCUGGCGCCGGCUGGGCAACAUUCCGAGGGGACCUUCCCCUCGGUAAUGGCGAAUGGGACCCA [C24A G59U] | 0.783 |
| GGCCGACAUGGUCCCAGCCUCCUCGCUGGCGCCGGCUGGGCAACAUUCCGAGGGGACCGUCCCCUCGGUAAUGCCGAAUGGGACCCA [G6A G74C] | 0.155 |
| GGCCGGCAUGGUCCCAGCCUCCUCGCUGGCCCCGGCUGGGCAACAUUCCGAGGGGACCGUCCCCACGGUAAUGGCGAAUGGGACCCA [G31C U65A] | 0.394 |
| GGCCGGCAUGGUCCCAGCCUCCUAGCUGGCGCCGGCCGGGCAACAUUCCGAGGGGACCGUCCCCUCGGUAAUGGCGAAUGGGACCCA [C24A U37C] | 0.974 |
| GGCCGGCAUGGUCCCAGCCUCCUCGCUGGCGCCGGCUGGGCAACAUUCCGAGGGGACCGUCCCCUCGGUAAUGGCGAAUAGGUCCCA [G80A A83U] | 0.229 |
| GGCCGGCAUGGUCCCAGCCUCCUCGCUGGCGCUGGCUGGGCAACAUUCCGAGGGGCCCGUCCCCUCGGUAAUGGCGAAUGGGACCCA [C33U A56C] | 0.658 |
| GGCCGGCAUGGUCCCAGCCUCCUCGCUGGCGCCGGCUGGGCAACAUUCCGAGGCGACCGUCCCCUCAGUAAUGGCGAAUGGGACCCA [G54C G67A] | 0.819 |
| GGCCGGCAUGGUACCGGCCUCCUCGCUGGCGCCGGCUGGGCAACAUUCCGAGGGGACCGUCCCCUCGGUAAUGGCGAAUGGGACCCA [C13A A16G] | 0.293 |

| Variant | self-cleavage |
| --- | --- |
| GGCCGGCAUGGUCCCAGCCUCCUCGCUGGCGCCGGCUGGGCAACAUUCCGAGGGGACCGUCCCCUCGGUACUGGCGAAUGGGAUCCA [A71C C84U] | 0.604 |
| GGCCGGCGUGGUCCCAGCCUCCUCGCUGGCGCCGGCUGGGCAACAUUCCGAGGGGACCGUUCCCUCGGUAAUGGCGAAUGGGACCCA [A8G C61U] | 0.982 |
| GGCCGGCAUGGUCCCAGCCUCCUCGCUGGCGCCGGCUGUGCAACAUUCCGAGGAGACCGUCCCCUCGGUAAUGGCGAAUGGGACCCA [G39U G54A] | 0.59 |
| GGCCGGCAUGGUACCAGCCUCCUCGCUGGCGCCGGCUGGGCAACAUUCCGAGGGGACCGUCCCCUCGGUAAUGGCGAAUGGGAACCA [C13A C84A] | 0.831 |
| GGCCGGCAUGGUCCCAGCCUCCUCGCUGGCGCCGGCUGGUCAACAUUCCGAGGGGACCGUCCCCUCGGUAAUGGCGAAUGGGACCGA [G40U C86G] | 0.562 |
| GGCCGGCAUGGUCCAAGCCUCCUCGCUGGCGCCGGCUGGGCAACAUUCCGAGGGGACCGUCCCCUCUGUAAUGGCGAAUGGGACCCA [C15A G67U] | 0.633 |
| GGCCGGCAUGGUCCCAGCCUUCUCGCUGGCGCCGGCUGGGCAACAUUCCGAGGGGACCGUCCCCUCGGUUAUGGCGAAUGGGACCCA [C21U A70U] | 0.228 |
| GGCCGGAAUGGUCCCAGCCUGCUCGCUGGCGCCGGCUGGGCAACAUUCCGAGGGGACCGUCCCCUCGGUAAUGGCGAAUGGGACCCA [C7A C21G] | 0 |
| GGCCGGCACGGUCCCAGCCUCCUCGCUGGCGCCGGCUGCGCAACAUUCCGAGGGGACCGUCCCCUCGGUAAUGGCGAAUGGGACCCA [U9C G39C] | 0.287 |
| GGCCGGCAUGGUCCCAGCCUCCUCGCUGGCGCCGGCUGGGCAACAUGCAGAGGGGACCGUCCCCUCGGUAAUGGCGAAUGGGACCCA [U47G C49A] | 1.09 |
| GGCCGGCAUGGUCACAGCCUCCUCGCUGGCGCCGGCUGGGCAACAUUCCGAGGGGACCGUCCCCGCGGUAAUGGCGAAUGGGACCCA [C14A U65G] | 0.688 |
| GGCCGGCAUGGUCCCAGCCUCCUCGCUGGCGCCGCCUGGGCAACAUUGCGAGGGGACCGUCCCCUCGGUAAUGGCGAAUGGGACCCA [G35C C48G] | 0.485 |
| GGCCGGCAUGGUCCCAGCCGCCUCGCUGGCGCCGGCUGGGCAAAAUUCCGAGGGGACCGUCCCCUCGGUAAUGGCGAAUGGGACCCA [U20G C44A] | 0.262 |
| GGCCGGCAUGGUCCCAGCCUCCUCGCUGGCGCCGGCUGAGCAACAUUCCGAGGGGACCAUCCCCUCGGUAAUGGCGAAUGGGACCCA [G39A G59A] | 0.426 |
| GGCCGGCAUGGUCCCAGCCUCCUCGCUGUCGCCGGCUGGGCAACAUUCCGAGGGGACCGCCCCCUCGGUAAUGGCGAAUGGGACCCA [G29U U60C] | 0 |
| GGCUGGCAUGGUCCCAGCCUCCUCGCUGGCGCCGGCUGGGCAACAUUCCGAGGGGACCGUCCCCUCGGUAACGGCGAAUGGGACCCA [C4U U72C] | 0.554 |
| GGCCGGCAUGGCCCCAGCCUCCUCGCUGGCGCCGGCUGGGCAACAUUCCGAGGGGACCGUCCCCUCGGUAAUAGCGAAUGGGACCCA [U12C G73A] | 0.289 |
| GGCCGGCAUGGUCCCAGCCUCCUCGCUGGCGCCGGCUGGGCAACAUUCCGUGGGGACCGUCCCCUCGGUAAUGGCGAAUGGGCCCCA [A51U A83C] | 0.269 |
| GGCCGGCAUGGUCCCAACCUCCUCGCUGGCGCCGGCUGGGCAACAUUCCGAGGGGACCGUCCCCUCGGUAAUGGCGAAUGGGAGCCA [G17A C84G] | 0.623 |
| GGCCGGCAUGGUCCCAGCCUCCUCUCUGGCGCCGGCUGGGCAUCAUUCCGAGGGGACCGUCCCCUCGGUAAUGGCGAAUGGGACCCA [G25U A43U] | 0.0707 |
| GGCCGGCAUGGUCCCAGCCUCCUCGCUGGCGCCGGCUGGUCAACAUUCCGAGGGGACCGUCUCCUCGGUAAUGGCGAAUGGGACCCA [G40U C62U] | 0.872 |
| GGCCGGCAUGGUCCCAGCCUCCUCGCUGGCGCCGGCUGGGCAACAUUCCGAGGGGACCGUCCCCUCGGUUAUGGCGAACGGGACCCA [A70U U79C] | 0.277 |

| Variant | self-cleavage |
| --- | --- |
| AGCCGGGAUGGUCCCAGCCUCCUCGCUGGCGCCGGCUGGGCAACAUUCCGAGGGGACCGUCCCCUCGGUAAUGGCGAAUGGGACCCA [G1A C7G] | 0.0405 |
| GGCCGGCAUGGUCCCAGCCUCCUCGCUGGCGCCGGCUGGGCAACAUUCCGAGGUGACCGUCCGCUCGGUAAUGGCGAAUGGGACCCA [G54U C63G] | 0.749 |
| GGCCGGCAUGGUCCCAGCCUCCUCGCUGGCGCCGGCUGGGCAACAUUCCGAGGGGACCCUGCCCUCGGUAAUGGCGAAUGGGACCCA [G59C C61G] | 0.927 |
| GGCCGGCAUGGUCCCAGCCUCCUCGUUGGCGCCGGCUGGGCAACAUUCCGAGGGGACCGUCCCCUCGGUAAUGGCAAAUGGGACCCA [C26U G76A] | 1.04 |
| GGCCGGCAUGGUCCCAGCCUCCUCGCUGGCGCCGGCUGGGCAACAUUCCGAGGUGACCGUCCCCUCUGUAAUGGCGAAUGGGACCCA [G54U G67U] | 0.774 |
| GGCCGGCAUAGUCCCAGCCUCCUCGCUGGCGCCGGCUGGGCAACAUUCCGAGGGGACCGUCCCCUCGGUAAUGGCGAAUGUGACCCA [G10A G81U] | 0.0468 |
| GGCCGGCAUGGUCCCAGCCUCGUCGCUGGCGCCGGCUGGGCAACAUUCCGAGGGGACCGUCCCCUCGGUAAUGGCGAAUUGGACCCA [C22G G80U] | 0.142 |
| GGCCGGCAUGGUCCCAGCCUCCUCGCUGGCGCCGGCUGGGCAACAUUCCGAGGGGUCCGUCCCCUCGGUAAUGGCGAAUGGGACCCC [A56U A87C] | 0.963 |
| GGCCGGCAUGGUGCCAGCCUCCUCGCUGGCGCCGGCUGGGCAACAUUCCGAGGGGACCGUCCCCUCGGUAAUGGCGAAUGUGACCCA [C13G G81U] | 0.0475 |
| GGCCGGCAUGGUCCCAGCUUCCUCGCUGGCGCCGGCUGGGCAACAUUCCGAGGGGACCGUCCCCUCGGUAAUGGCGAAUGGGACCCG [C19U A87G] | 0.107 |
| GGCCGGCAUGGUCCCAGCCUCCUAGCUGGCGCCGGCUGGGCAACAUUCCGAGGGGACCGUCCCCUCGGUAAUAGCGAAUGGGACCCA [C24A G73A] | 0.234 |
| GGCCGGCAUGGUCCCAGCCUCCUCGCUGGGGCCGGCUGGGCAACAUUCCGAGGGGACCGUCCCCUCGGUAAUGGCGAAUGGUACCCA [C30G G82U] | 0.0627 |
| GGCCAGCAUGGUCCCAGCUUCCUCGCUGGCGCCGGCUGGGCAACAUUCCGAGGGGACCGUCCCCUCGGUAAUGGCGAAUGGGACCCA [G5A C19U] | 0 |
| GGCCGGCAUGGUCCCAGCCUCCUCGCUGGCCCCGGCUGGGCAACAUUCCGAGGGGACCGUCCCCUCGGUAAUGGCGAAUGGGACUCA [G31C C85U] | 0.299 |
| GGCCGGCAUGGUCCCAGCCUCCUCGCUGGCGCCGGCUGGGCAACAUUCCGAGGGGACGGUCCCCUCGGUAAUGGCGAAUGCGACCCA [C58G G81C] | 0.364 |
| GGCCGGCAUGGUCCCAGGCUCCUCGCUGGCGCCGGCUGGGCAACAUUCCGGGGGGACCGUCCCCUCGGUAAUGGCGAAUGGGACCCA [C18G A51G] | 0 |
| GGCCGGCAUGGUCCCAGCCUCCUCGCUGGCGCCGGCUGGUCAACAUUCCGAGGGGACCGUCCCCUCGGUUAUGGCGAAUGGGACCCA [G40U A70U] | 0.69 |
| GGCCGGCAUGCUCCCAGCCUCCUCGCUGGCGCCGGCUGGGCAACAAUCCGAGGGGACCGUCCCCUCGGUAAUGGCGAAUGGGACCCA [G11C U46A] | 0.115 |
| GGCCGGCAUGGUCUCAGCCUCCUCGCUGGCGCCGGCUGGGCAACAUUCCGAGGGGCCCGUCCCCUCGGUAAUGGCGAAUGGGACCCA [C14U A56C] | 1.44 |
| GGCCGGCAUGGUCUCAGCCUCCUUGCUGGCGCCGGCUGGGCAACAUUCCGAGGGGACCGUCCCCUCGGUAAUGGCGAAUGGGACCCA [C14U C24U] | 0.658 |
